The experiment addresses 突变型金黄色葡萄球菌α-溶血素(mHla), Hla(H35L) (Staphylococcus aureus (strain MRSA 252)). Put plainly: ELISA, mHla coated at 2μg/mL, anti-human IgG Fab-HRP detection. (In general: In an ELISA, binding on a coated surface is turned into a signal by an enzyme label.)

B1: 全人源Hla单克隆抗体Hla-38 (antibody, V domains shown)
VH: QVQLLESGGGVVQPGRSLRLSCIVSGFDLNSFAMHWVRQPPGKGLEWVAVIWHDGSERFYAASVKGRFTISRDTSRNTLFLQMNSLRVEDTAVYYCAKSGDYYENSGYFGSWGQGALVTVSS
VL: ELVLTQSPATLSVSPGERATLSCRASQSVGNDLAWYQQKPGQAPRLLIYGASTRATGIPARFSGSGFGTEFTLTISSLQSEDFAVYYCQQYNNWWTFGQGTKVDIK
For orientation: EC50 means the concentration at which the effect is half-maximal. B1 showed an EC50 of 0.849 µg/mL.

The values above are taken from patent publication CN116789813A.
